# Experimental data from US20250388688A1 (ETHYREAL BIO, published 2025).
# B1: parental TSHR-binding antibody (antibody, V domains shown)
# VH: EVQLVQSGAEVKKPGQSLKISCKASGYSLTDNWIGWVRQKPGKGLEWMGIIYPGDSDTRYSPSFQGQVTISADKSINTAYLQWSSLKASDTAIYYCVGLDWNYNPLRYWGPGTLVTVSS
# VL: QSVLTQPPSVSAAPGQKVTISCSGSSSDIGSNYVSWYQQFPGTAPKLLIYDNNKRPSAIPDRFSGSKSGTSATLGITGLQTGDEADYYCGTWDSRLGIAVFGGGTQLTVL
# notes: it has a human Fc (captured on anti-human Fc, detected with anti-human IgG Fc); also called parental antibody; parental anti-TSHR antibody
# B2: TSHB-12 (antibody, V domains shown)
# VH: EVQLVQSGAEVKKPGASVKVSCKASGYSLTDNWIGWVRQAPGQGLEWMGIIYPGDSDTRYAQKFQGRVTMTADKSTSTVYMELSSLRSEDTAVYYCVGLDWNYNPLRYWGQGTLVTVSS
# VL: QSVLTQPPSVSAAPGQKVTISCSGSSSDIGSNYVSWYQQFPGTAPKLLIYDNNKRPSAIPDRFSGSKSGTSATLGITGLQTGDEADYYCGTWDSRLGIAVFGGGTQLTVL
# B3: TSHB-10 (antibody, V domains shown)
# VH: EVQLVQSGAEVKKPGESLKISCKASGYSLTDNWIGWVRQKPGKGLEWMGIIYPGDSDTRYSPSFKGQVTISADKSISTAYLQWSSLKASDTAIYYCVGLDWNYNPLRYWGQGTLVTVSS
# VL: QSVLTQPPSVSAAPGQKVTISCSGSSSDIGSNYVSWYQQFPGTAPKLLIYDNNKRPSAIPDRFSGSKSGTSATLGITGLQTGDEADYYCGTWDSRLGIAVFGGGTQLTVL
# B4: TSHB-3 (antibody, V domains shown)
# VH: EVQLVQSGAEVKKPGESLKISCKASGYSLTDNWIGWVRQKPGKGLEWMGIIYPGDSDTRYSPSFQGQVTISADKSISTAYLQWSSLKASDTAIYYCVGLEWNYNPLRYWGQGTLVTVSS
# VL: QSVLTQPPSVSAAPGQKVTISCSGSSSDIGSNYVSWYQQFPGTAPKLLIYDNNKRPSAIPDRFSGSKSGTSATLGITGLQTGDEADYYCGTWDSRLGIAVFGGGTQLTVL
# B5: TSHB-9 (antibody, V domains shown)
# VH: EVQLVQSGAEVKKPGESLKISCKASGYSLTDNWTGWVRQKPGKGLEWMGIIYPGDSDTRYSPSFQGQVTISADKSISTAYLQWSSLKASDTAIYYCVGLDWNYNPLRYWGQGTLVTVSS
# VL: QSVLTQPPSVSAAPGQKVTISCSGSSSDIGSNYVSWYQQFPGTAPKLLIYDNNKRPSAIPDRFSGSKSGTSATLGITGLQTGDEADYYCGTWDSRLGIAVFGGGTQLTVL
# B6: TSHB-6 (antibody, V domains shown)
# VH: EVQLVQSGAEVKKPGESLKISCKASGYSLNDNWIGWVRQKPGKGLEWMGIIYPGDSDTRYSPSFQGQVTISADKSISTAYLQWSSLKASDTAIYYCVGLDWNYNPLRYWGQGTLVTVSS
# VL: QSVLTQPPSVSAAPGQKVTISCSGSSSDIGSNYVSWYQQFPGTAPKLLIYDNNKRPSAIPDRFSGSKSGTSATLGITGLQTGDEADYYCGTWDSRLGIAVFGGGTQLTVL
# B7: TSHB-13 (antibody, V domains shown)
# VH: EVQLVQSGAEVKKPGQSLKISCKASGYSLTDNWIGWVRQKPGKGLEWMGIIYPGDSDTRYSPSFQGQVTISADKSINTAYLQWSSLKASDTAIYYCVGLDWNYNPLRYWGPGTLVTVSS
# VL: QSVLTQPPSVSAAPGQKVTISCSGSSSDIGSNYVSWYQQLPGTAPKLLIYDNNKRPSGIPDRFSGSKSGTSATLGITGLQTGDEADYYCGTWDSRLGIAVFGGGTQLTVL
# B8: TSHB-22 (antibody, V domains shown)
# VH: EVQLVQSGAEVKKPGQSLKISCKASGYSLTDNWIGWVRQKPGKGLEWMGIIYPGDSDTRYSPSFQGQVTISADKSINTAYLQWSSLKASDTAIYYCVGLDWNYNPLRYWGPGTLVTVSS
# VL: QSVLTQPPSVSGAPGQRVTISCSGSSSDIGSNYVSWYQQLPGTAPKLLIYDNNKRPSGVPDRFSGSKSGTSASLAITGLQAEDEADYYCGTWDSRLGIAVFGGGTKLTVL
# B9: TSHB-7 (antibody, V domains shown)
# VH: EVQLVQSGAEVKKPGESLKISCKASGYSLKDNWIGWVRQKPGKGLEWMGIIYPGDSDTRYSPSFQGQVTISADKSISTAYLQWSSLKASDTAIYYCVGLDWNYNPLRYWGQGTLVTVSS
# VL: QSVLTQPPSVSAAPGQKVTISCSGSSSDIGSNYVSWYQQFPGTAPKLLIYDNNKRPSAIPDRFSGSKSGTSATLGITGLQTGDEADYYCGTWDSRLGIAVFGGGTQLTVL
# B10: TSHB-4 (antibody, V domains shown)
# VH: EVQLVQSGAEVKKPGESLKISCKASGYELTDNWIGWVRQKPGKGLEWMGIIYPGDSDTRYSPSFQGQVTISADKSISTAYLQWSSLKASDTAIYYCVGLDWNYNPLRYWGQGTLVTVSS
# VL: QSVLTQPPSVSAAPGQKVTISCSGSSSDIGSNYVSWYQQFPGTAPKLLIYDNNKRPSAIPDRFSGSKSGTSATLGITGLQTGDEADYYCGTWDSRLGIAVFGGGTQLTVL
# B11: TSHB-5 (antibody, V domains shown)
# VH: EVQLVQSGAEVKKPGESLKISCKASGYQLTDNWIGWVRQKPGKGLEWMGIIYPGDSDTRYSPSFQGQVTISADKSISTAYLQWSSLKASDTAIYYCVGLDWNYNPLRYWGQGTLVTVSS
# VL: QSVLTQPPSVSAAPGQKVTISCSGSSSDIGSNYVSWYQQFPGTAPKLLIYDNNKRPSAIPDRFSGSKSGTSATLGITGLQTGDEADYYCGTWDSRLGIAVFGGGTQLTVL
# B12: TSHB-25 (antibody, V domains shown)
# VH: EVQLVQSGAEVKKPGASVKVSCKASGYSLTDNWIGWVRQAPGQGLEWMGIIYPGDSDTRYAQKFQGRVTMTADKSTSTVYMELSSLRSEDTAVYYCVGLDWNYNPLRYWGQGTLVTVSS
# VL: QSVLTQPPSVSGAPGQRVTISCSGSSSDIGSNYVSWYQQLPGTAPKLLIYDNNKRPSGVPDRFSGSKSGTSASLAITGLQAEDEADYYCGTWDSRLGIAVFGGGTKLTVL
# B13: TSHB-1 (antibody, V domains shown)
# VH: EVQLVQSGAEVKKPGESLKISCKASGYSLTDNWIGWVRQKPGKGLEWMGIIYPGDSDTRYSPSFQGQVTISADKSISTAYLQWSSLKASDTAIYYCVGLDWNYNPLRYWGQGTLVTVSS
# VL: QSVLTQPPSVSAAPGQKVTISCSGSSSDIGSNYVSWYQQFPGTAPKLLIYDNNKRPSAIPDRFSGSKSGTSATLGITGLQTGDEADYYCGTWDSRLGIAVFGGGTQLTVL
# B14: TSHB-8 (antibody, V domains shown)
# VH: EVQLVQSGAEVKKPGESLKISCKASGYSLTDNWIGWVRQKPGKGLEWMGIIYPGDSDTRYSPSFQGQVTISADKSISTAYLQWSSLKASDTAMYYCVGLDWNYNPLRYWGQGTLVTVSS
# VL: QSVLTQPPSVSAAPGQKVTISCSGSSSDIGSNYVSWYQQFPGTAPKLLIYDNNKRPSAIPDRFSGSKSGTSATLGITGLQTGDEADYYCGTWDSRLGIAVFGGGTQLTVL
# Assays:
# [1] = target: T1, soluble TSHR protein (ELISA coat) (human, UniProt P16473 22-260, limits assumed); test: ELISA, plate coated with soluble TSHR, antibody at 33.3 nM, anti-human IgG Fc-HRP;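 also: binding of antibody variants to plate-bound soluble TSHR (coated at 2 µg/ml), with bound human IgG detected by HRP conjugate and colour developed using TMB substrate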
# Method: (§1) Select TSHR antibody variants were tested for their ability to bind TSHR in an ELISA. Briefly, soluble TSHR protein was coated onto a plate at 2 μg/ml in phosphate buffered saline (PBS). The plate was washed with PBS and blocked with 4% skim milk in PBS.
# (§2) Following wash steps with 1×PBS-Tween 0.05%, bound human IgG was detected with peroxidase conjugated goat anti-human IgG (Fc specific)-HRP at 1:5000 dilution and the ELISA was developed with TMB reagent followed by H2SO4.
# [2] = target: T1, soluble TSHR protein (ELISA coat); test: ELISA, plate coated with soluble TSHR, antibody at 300 nM, anti-human IgG Fc-HRP;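 also: TSHR coated at 2 µg/ml, bound antibody revealed by goat anti-human IgG Fc HRP, color developed with TMB and stopped with H2SO4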
# Method: as §1, §2
# [3] = target: T1, soluble TSHR protein (ELISA coat); test: ELISA, plate coated with soluble TSHR, antibody at 100 nM, anti-human IgG Fc-HRP;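 also: binding of antibody variants to soluble TSHR coated at 2 µg/ml, with colour developed using TMB substrate and stopped with H2SO4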
# Method: as §1, §2
# [4] = target: T2, Soluble TSHR (22-260) protein (human, UniProt P16473 22-260); test: SPR (Biacore T200, 25 C), antibody captured on anti-human Fc, soluble TSHR (22-260) as analyte, 1:1 fit;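 also: antibodies captured at 0.1 ug/mL on a CM5 sensor chip bearing anti-human Fc, with HBS-EP+ running buffer at pH 7.4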
# T2 construct: range 22-260
# Method: Measurements were taken on a Biacore T200 at 25 C using a CM5 chip coated with anti-human Fc. Test antibodies were captured at 0.1 ug/mL in HBS-EP+ (10 mM HEPES pH7.4, 150 mM NaCl, 3 mM EDTA, 0.05% Tween 20) assay buffer. […] A 1:1 binding kinetics fit was used to calculate kinetic parameters.
Binder,ELISA (OD 450) at 33.3 nM [1] [OD 450],ELISA (OD 450) at 300 nM [2] [OD 450],ELISA (OD 450) at 100 nM [3] [OD 450],Kd [4] [nM],koff [4] [s⁻¹],kon [4] [M⁻¹ s⁻¹]
B1,0.406,0.461,0.43,–,–,–
B2,0.402,0.52,0.475,–,–,–
B3,0.44,0.557,0.496,2.94,0.000338,115000
B4,0.351,0.467,0.407,3.01,0.000533,177000
B5,0.355,0.478,0.452,6.53,0.000676,104000
B6,0.45,0.548,0.493,3.73,0.000532,142000
B7,0.459,0.561,0.495,–,–,–
B8,0.447,0.53,0.493,–,–,–
B9,0.443,0.555,0.491,4.11,0.000477,116000
B10,0.374,0.542,0.453,2.41,0.000362,150000
B11,0.414,0.578,0.498,2.82,0.00044,156000
B12,0.38,0.367,0.409,–,–,–
B13,0.442,0.641,0.506,1.7,0.000273,161000
B14,0.471,0.586,0.551,2.25,0.000344,153000
